The values that follow come from PMC4204884.

Data set [1] addresses T1, Cdc5-R1-R2-D3ΔL (Schizosaccharomyces pombe, UniProt P39964 5-208, del111-146). As to the kind of experiment: pull-down.
Data set [2] deals with T1, Cdc5-R1-R2-D3ΔL. Put plainly: pull-down. This is another data set of the same source.

Where two headings read alike, the source gives them in different places.

Take CAGAGAA (ssRNA) [Bi-U6 ssRNA]: the binding result in data set [1] is listed as “binds”.

Regarding CGUACACCAUCAGGGUACG (structured_RNA) [Bi-MS2 dsRNA], in data set [2], the binding result is “binds”.

Consider AAGUGUAG (ssRNA) [Bi-U2 ssRNA], for which the binding result in data set [1] was “binds”.
